Measured values published in patent publication US10184140B2, “Materials and methods for production of bi-functional fatty acids in recombinant bacteria” (IOWA STATE UNIVERSITY RESEARCH FOUNDATION, INC., priority 2013, dated 2019).
Positions count from the first letter of the chain named. Names and notes keep the numbering of the source.

Tests used:
[1] = type: binding; details: ligand in 50-fold molar excess, relative to water control
[2] = Melting temperatures (Tm) of KASIII enzymes without ligand; type: physicochemical; details: in water, no ligand, baseline Tm
[3] = Spectrophotometric coupled assay (FabD/FabG, NADPH at 340 nm) of KASIII specific activity with acyl-CoA substrates; details: for Specific Activity with Isobutyryl-CoA: substrate isobutyryl-CoA
Description: The method comprises (i) incubating holo-ACP, malonyl-CoA, acyl-CoA, NADPH, and malonyl-CoA:ACP transacylase (FabD), (ii) adding KASIII and 3-ketoacyl-ACP reductase (FabG), and (iii) measuring the change in absorbance at 340 nm when NADPH is converted to NADP+ during reduction of 3-ketoacyl-ACP to 3-hydroxyl-acyl ACP by FabG.
Activity of A. acidocaldarius KASIII with different acyl-CoA substrates (acetyl-CoA, isobutyryl-CoA and 3-hydroxybutyryl-CoA (Sigma-Aldrich)) was ascertained by a coupled assay. The assay was performed in 96-well plate format with three replicates for each reaction condition. In a total volume of 100 μl for each reaction the reaction mix containing 100 μM holo-ACP, 200 μM malonyl-CoA, 10 mM DTT, 50 μM acyl-CoA substrate (either acetyl-CoA, isobutyryl-CoA or 3-hydroxy-butyryl-CoA) and 200 μM NADPH in 0.1 M sodium phosphate buffer (pH 7.2) was pre-incubated with 60 μg of FabD for two minutes. The reaction was started by the addition of 30 μg of FabG and varying concentrations of A. acidocaldarius (0.5-15 μg). Change in absorbance of NADPH that was being converted to NADP^+ during reduction of 3-ketoacyl-ACP 3-hydroxy-acyl-ACP by FabG was recorded at 340 nm using a Biotek multi-plate reader.
Spectrophotometric assay was used to assess the activity of A. acidocaldarius KASIII with various acyl-CoA substrates. The assay coupled the appearance of the KASIII-product (3-ketoacyl-ACP) to the oxidation of NADPH, catalyzed by 3-ketoacyl-ACP reductase (FabG).
KASIII enzymatic activity was ascertained via spectrophotometric assay, which coupled the appearance of 3-ketoacyl-ACP to the oxidation of NADPH, using the E. coli FabG protein to reduce 3-ketoacyl-ACP to 3-hydroxyacyl-ACP. The assay was performed in a 96-well plate-format with three technical replicates for each reaction condition. In a total volume of 100 μl for each reaction, the reaction mix contained 100 μM holo-ACP, 200 μM malonyl-CoA, 10 mM DTT, 50 μM acyl-CoA substrate, and 200 μM NADPH in 0.1 M sodium phosphate buffer (pH 7.2). This mixture was pre-incubated with 60 μg of FabD for two minutes to initiate synthesis of malonyl-ACP from malonyl-CoA and holo-ACP. The reaction was then started by the addition of 30 μg of FabG and varying concentrations of KASIII enzyme (0.5-15 μg). As KASIII catalysed the condensation of acyl-CoA with malonyl-ACP to form 3-ketoacyl-ACP, FabG reduced the 3-ketoacyl-ACP intermediate to 3-hydroxy-acyl ACP in the presence of NADPH.

[4] = Saturation Transfer Difference NMR of KASIII enzymes with acetyl-CoA or isobutyryl-CoA; type: binding
Description: NMR experiments were performed at 25° C. on a Bruker AV700 MHz spectrometer equipped with a 5 mm HCN cryoprobe. Samples for STD NMR experiments were prepared in 0.1 M sodium phosphate buffer (pH 7.4) with 5% D2O. The protein/ligand ratio was set as 1:100 with KASIII concentration in the 20-25 μM range. Saturation was applied as CW pulse with a power of 58-60 Hz, with on-resonance pulses at 0.62 ppm and 6.86 ppm for upfield and downfield, respectively. The off-resonance pulse was applied at 45 ppm. 3-9-19 WATERGATE suppression was used with a T1-ρ filter. Saturation time of five seconds with an additional delay of 5.1 seconds was used. A set of three replicates was acquired, with 32 scans in each replicate, for each STD NMR experiment of KASIII wild-type or mutated enzyme with a ligand, which was either acetyl-CoA or isobutyryl-CoA (Sigma-Aldrich, St. Louis, Mo.). The reference and the saturated spectra were obtained in an interleaved manner. Resonance assignments of 1H NMR spectra of free ligands were completed using ID 1H and COSY.
Control experiments were carried out by applying on- and off-resonance saturation pulses either to the ligand in the absence of protein, or to the ligand in the presence of denatured protein.
Relative STD effects (ASTD) were calculated according to the equation ASTD=(Io−Isat)/Io where Isat is the signal intensity of the saturated spectrum and Io is the signal intensity of the reference spectrum (Mayer et al., J. Am. Chem. Soc. 123: 6108-6117 (2001)). STD amplification factor was calculated according to the equation: STDaf=ASTD×molar ligand excess.
STD NMR experiments elucidated interactions of these purified enzymes (both wild-type and mutated) with straight-chain substrate (acetyl-CoA) and branched-chain substrate (isobutyryl-CoA) and enabled mapping of binding epitopes on the two substrates. Relative saturation transfer to each of the binding epitopes was measured and converted to the STD amplification factor (STDaf), which is an indicator of ligand binding (Mayer et al., J. Am. Chem. Soc. 123: 6108-6117 (2001)). Ligand epitopes with high STDaf values are assumed to receive higher saturation transfer from the enzyme, and thus are in close contact with the enzyme.

[5] = system: B. subtilis FabH deletion mutant; assay: Fatty acid production by recombinant KASIII in B. subtilis FabH deletion mutant; type: cell-based; details: B. subtilis FabH deletion mutant rescued by the recombinant KASIII

B1: B. subtilis KASIIIb Wild-type: B. subtilis KASIIIB, bfabHB (yhfB) locus, GenBank CAB12857.1, amino acid sequence SEQ ID NO:66 (protein)
chain: MSKAKITAIGTYAPSRRLTNADLEKIVDTSDEWIVQRTGMRERRIADEHQFTSDLCIEAVKNLKSRYKGTLDDVDMILVATTTSDYAFPSTACRVQEYFGWESTGALDINATCAGLTYGLHLANGLITSGLHQKILVIAGETLSKVTDYTDRTTCVLFGDAAGALLVERDEETPGFLASVQGTSGNGGDILYRAGLRNEINGVQLVGSGKMVQNGREVYKWAARTVPGEFERLLHKAGLSSDDLDWFVPHSANLRMIESICEKTPFPIEKTLTSVEHYGNTSSVSIVLALDLAVKAGKLKKDQIVLLFGFGGGLTYTGLLIKWGM
modifications: B. subtilis
Thermal shift: increase in Tm with 3-hydroxybutyryl-CoA [1]: thermally stabilized | Thermal shift: increase in Tm with butyryl-CoA [1]: ≥ 6 °C | Thermal shift: increase in Tm with crotonyl-CoA [1]: ≥ 6 °C | Thermal shift: increase in Tm with isobutyryl-CoA [1]: ≥ 6 °C | Thermal shift: increase in Tm with isovaleryl-CoA [1]: ≥ 6 °C | Thermal shift: increase in Tm with methylmalonyl-CoA [1]: ≥ 6 °C | Thermal shift: increase in Tm with phenylacetyl-CoA [1]: ≥ 6 °C | Thermal shift: increase in Tm with propionyl-CoA [1]: ≥ 6 °C | Thermal shift: increase in Tm with benzoyl-CoA ([1]; listed as bsKASIIIb): destabilized the bsKASIIIb protein | Thermal shift: increase in Tm with hexanoyl-CoA ([1]; listed as bsKASIIIb): destabilized the bsKASIIIb protein | Melting temperature (Tm) without ligand [2]: 48.7 ± 0.24 °C | Melting temperature (Tm) without ligand ([2]; listed as bsKASIIIb): ~48.7 °C | Specific Activity with Isobutyryl-CoA ([3]; n.d. = not detectable): 279 ± 8 nmol/min/mg

B2: E. coli KASIII F304A (protein)
chain: MYTKIIGTGSYLPEQVRTNADLEKMVDTSDEWIVTRTGIRERHIAAPNETVSTMGFEAATRAIEMAGIEKDQIGLIVVATTSATHAFPSAACQIQSMLGIKGCPAFDVAAACAGFTYALSVADQYVKSGAVKYALVVGSDVLARTCDPTDRGTIIIFGDGAGAAVLAASEEPGIISTHLHADGSYGELLTLPNADRVNPENSIHLTMAGNEVFKFAVTEMAHIVDETLAANNLDRSQLDWLVPHQANLRIISATAKKLGMSMDNVVVTLDRHGNTSAASVPCALDEAVRDGRIKPGQLVLLEAAGGGFTWGSALVRF
modifications: E. coli mutant; (304)..(304) phenylalanine at amino acid position 304 replaced with alanine
Lower saturation transfer to the HT protons of acetyl-CoA and isobutyryl-CoA compared to the wild-type ([4]; mutant vs wild-type): approximately 60%

B3: KASIII from Bacteroides vulgatus: KASIII from Bacteroides vulgatus, GenBank ABR38167.1 (protein, UniProt A6KXK3 1-334, looked up)
Beta-ketoacyl-[acyl-carrier-pr …: MEKINAVITGVGGYVPDYVLTNEEISRMVDTNDEWIMTRIGVKERRILNEEGLGTSYMARKAAKQLMQKTASNPDDIDAVIVATTTPDYHFPSTASILCDKLGLKNAFAFDLQAACCGFLYLMETAASLIASGRHKKIIIVGADKMSSMVNYQDRATCPIFGDGAAACMVEATTEDYGIMDSILRTDGKGLPFLHMKAGGSVCPPSYFTVDHKMHYLYQEGRTVFKYAVSNMSDITATIAEKNGLNKDNIDWVIPHQANLRIIDAVASRLEVPLEKVMINIQRYGNTSGATLPLCLWDYEKQLKKGDNLIFTAFGAGFTYGAVYVKWGYDGSKR
Fatty acid content: Anteiso-fatty acids [5]: 70.43 mole % | Fatty acid content: Even-number iso-fatty acids [5]: 1.73 mole % | Fatty acid content: Even-number normal fatty acids [5]: 9.51 mole % | Fatty acid content: Odd-number iso-fatty acids [5]: 18.24 mole % | Fatty acid content: Odd-number normal fatty acids [5]: 0.09 mole % | Substrate preference in the spectrophotometric assay ([3]; acetyl-CoA, isobutyryl-CoA and 3-hydroxybutyryl-CoA tested): higher preference for isobutyryl-CoA and 3-hydroxybutyryl-CoA as compared to acetyl-CoA

B4: B. subtilis KASIIIa Wild-type: B. subtilis KASIIIA, bfabHA (yjaX) locus, GenBank CAB12974.1, amino acid sequence SEQ ID NO:64 (protein)
chain: MKAGILGVGRYIPEKVLTNHDLEKMVETSDEWIRTRTGIEERRIAADDVFSSHMAVAAAKNALEQAEVAAEDLDMILVATVTPDQSFPTVSCMIQEQLGAKKACAMDISAACAGFMYGVVTGKQFIESGTYKHVLVVGVEKLSSITDWEDRNTAVLFGDGAGAAVVGPVSDDRGILSFELGADGTGGQHLYLNEKRHTIMNGREVFKFAVRQMGESCVNVIEKAGLSKEDVDFLIPHQANIRIMEAARERLELPVEKMSKTVHKYGNTSAASIPISLVEELEAGKIKDGDVVVMVGFGGGLTWGAIAIRWGR
modifications: B. subtilis
Higher saturation of HAP proton of isobutyryl-CoA as compared to the acetyl-CoA HAP proton ([4]; isobutyryl-CoA vs acetyl-CoA): ~28% | STD amplification factor (STDaf), HT proton of acetyl-CoA ([4]; protein/ligand 1:100, 25° C.): 1.5 | STD amplification factor (STDaf), HT proton of isobutyryl-CoA ([4]; protein/ligand 1:100, 25° C.): 1.5 | Catalytic activity with the isobutyryl-CoA substrate retained ([3]; conserved Phe mutated to Ala, compared with wild-type): about 25% | Specific Activity with Acetyl-CoA ([3]; substrate acetyl-CoA, n.d. = not detectable): 64 ± 32 nmol/min/mg | Specific Activity with Isobutyryl-CoA ([3]; n.d. = not detectable): 205 ± 139 nmol/min/mg

B5: B. subtilis KASIIIa F208V: B. subtilis KASIIIA single mutant F208V, amino acid sequence SEQ ID NO:120 (protein)
chain: B4 chain with F208V
modifications: B. subtilis KASIIIA mutant; (208)..(208) phenylalanine at amino acid position 208 replaced with valine
Decrease in saturation transfer/STDaf for isobutyryl-CoA HT and HB protons in comparison to the wild-type ([4]; mutant vs wild-type): ~40%

B6: B. subtilis KASIIIa M213L: B. subtilis KASIIIA single mutant M213L, amino acid sequence SEQ ID NO:122 (protein)
chain: B4 chain with M213L
modifications: B. subtilis KASIIIA mutant; (213)..(213) methionine at amino acid position 213 replaced with leucine
Decrease in STDaf for acetyl-CoA HT proton ([4]; mutant vs wild-type): 40% | Decrease in saturation transfer/STDaf for isobutyryl-CoA HT and HB protons in comparison to the wild-type ([4]; mutant vs wild-type): 60-70% | Specific Activity with Isobutyryl-CoA ([3]; n.d. = not detectable): 156 ± 47 nmol/min/mg

B7: B. subtilis KASIIIa F297A: B. subtilis KASIII containing an F297A mutation, amino acid sequence SEQ ID NO:126 (protein)
chain: B4 chain with F208V, M213L, F297A
modifications: B. subtilis KASIIIA mutant; (297)..(297) phenylalanine at amino acid position 297 replaced with alanine
Specific Activity with Isobutyryl-CoA ([3]; n.d. = not detectable): 56 ± 28 nmol/min/mg
